Measurements taken from article PMC3540084.

Experiments:
[1] = target: T1, recombinant human caspase-7 (human) (UniProt P55210)
T1 sequence: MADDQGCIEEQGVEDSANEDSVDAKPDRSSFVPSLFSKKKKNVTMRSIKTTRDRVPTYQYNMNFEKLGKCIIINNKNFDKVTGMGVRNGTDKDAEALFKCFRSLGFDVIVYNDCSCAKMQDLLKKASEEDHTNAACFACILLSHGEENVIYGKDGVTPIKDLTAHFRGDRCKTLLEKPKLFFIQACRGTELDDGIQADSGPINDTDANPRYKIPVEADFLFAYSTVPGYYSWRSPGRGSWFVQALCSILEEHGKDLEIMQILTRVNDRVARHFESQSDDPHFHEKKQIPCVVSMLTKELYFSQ

[2] = target: T2, recombinant human caspase-6 (human) (UniProt P55212)
T2 sequence: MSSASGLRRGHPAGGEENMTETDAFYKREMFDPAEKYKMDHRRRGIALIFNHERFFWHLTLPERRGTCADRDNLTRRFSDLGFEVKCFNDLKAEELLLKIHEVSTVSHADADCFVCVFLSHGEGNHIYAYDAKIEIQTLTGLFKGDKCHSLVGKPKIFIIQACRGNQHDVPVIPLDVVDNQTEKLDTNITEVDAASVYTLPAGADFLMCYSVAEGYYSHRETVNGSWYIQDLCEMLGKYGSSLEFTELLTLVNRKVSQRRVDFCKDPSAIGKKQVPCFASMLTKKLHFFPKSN

[3] = target: T3, recombinant human caspase-3 (human) (UniProt P42574)
T3 sequence: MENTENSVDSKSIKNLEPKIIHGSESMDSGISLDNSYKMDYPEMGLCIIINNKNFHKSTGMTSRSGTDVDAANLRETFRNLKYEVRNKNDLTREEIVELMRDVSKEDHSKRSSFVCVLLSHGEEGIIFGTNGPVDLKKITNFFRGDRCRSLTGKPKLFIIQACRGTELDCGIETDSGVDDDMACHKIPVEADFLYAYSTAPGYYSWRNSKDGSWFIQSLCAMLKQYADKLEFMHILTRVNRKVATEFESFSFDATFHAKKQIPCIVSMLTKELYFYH

[4] = target: recombinant human caspase-9 (human) (UniProt P55211)
UniProt P55211, sequence (P55211 whole entry): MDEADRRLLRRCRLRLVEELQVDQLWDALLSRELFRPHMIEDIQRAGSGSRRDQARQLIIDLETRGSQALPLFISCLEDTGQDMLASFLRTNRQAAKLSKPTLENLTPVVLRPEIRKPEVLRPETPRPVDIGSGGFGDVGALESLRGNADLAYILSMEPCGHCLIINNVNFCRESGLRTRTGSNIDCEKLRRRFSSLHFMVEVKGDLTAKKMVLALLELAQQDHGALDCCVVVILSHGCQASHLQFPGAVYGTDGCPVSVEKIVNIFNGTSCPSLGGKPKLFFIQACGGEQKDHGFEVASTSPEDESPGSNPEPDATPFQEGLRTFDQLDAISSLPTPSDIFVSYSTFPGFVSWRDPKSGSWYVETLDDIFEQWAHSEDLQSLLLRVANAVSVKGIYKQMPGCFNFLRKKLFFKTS

i 0,5 of inhibition of rh-caspase-7 activity (release of AMC from Ac-DEVD-AMC, substrate at Km concentration, 22°C) [1]: 1.3 µM | i 0,5 of inhibition of rh-caspase-6 activity (release of AMC from Ac-DEVD-AMC, substrate at Km concentration, 22°C) [2]: 2.2 µM | i 0,5 of inhibition of rh-caspase-3 activity (release of AMC from Ac-DEVD-AMC, substrate at Km concentration, 22°C) [3]: 2.5 µM | i 0,5 of inhibition of rh-caspase-9 activity (release of AMC from Ac-LEHD-AMC, substrate at Km concentration, 22°C) [4]: 0.31 µM | percent inhibition of rh-caspase-9 activity by 100 nM IL-1Ra [4]: 41%
Substance: recombinant human IL-1Ra (from UniProt P18510 26-177) (natural protein)
